# Results published in patent US6881404.
# Biological target: T1, P-selectin glycoprotein ligand-1 (UniProt Q14242)
# T1 sequence: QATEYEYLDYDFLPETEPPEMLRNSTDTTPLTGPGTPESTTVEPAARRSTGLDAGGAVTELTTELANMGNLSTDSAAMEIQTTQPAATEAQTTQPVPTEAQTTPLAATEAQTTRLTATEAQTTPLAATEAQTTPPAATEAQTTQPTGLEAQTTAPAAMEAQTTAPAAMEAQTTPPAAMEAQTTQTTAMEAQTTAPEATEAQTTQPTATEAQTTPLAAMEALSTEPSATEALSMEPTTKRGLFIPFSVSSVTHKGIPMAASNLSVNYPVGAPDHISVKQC
substance,measurement,value
"mocarhagin purified from the venom of the Mozambiquan spitting cobra, Naja mossambica mossambica",proteolytic cleavage of PSGL-1,Mocarhagin cleaves a ten amino acid peptide from the mature N-terminus of PSGL-1 and abolishes the ability of PSGL-1 to bind P-selectin
